The numbers were not newly measured in US6964771B1, “Method for stably incorporating substances within dry, foamed glass matrices” (Elan Drug Delivery Limited, priority 1995, dated 2005), which cites them from elsewhere.

The conditions of this data set: as delivered, dosage of 300 μg.

B1: Neupogen®: biopharmaceutical delivered at a dosage of 300 μg (protein, chains of the INN, looked up)
chain: MTPLGPASSLPQSFLLKCLEQVRKIQGDGAALQEKLCATYKLCHPEELVLLGHSLGIPWAPLSSCPSQALQLAGCLSQLHSGLFLYQGLLQALEGISPELGPTLDTLQLDVADFATTIWQQMEELGMAPALQPTQGAMPAFASAFQRRAGGVLVASHLQSFLEVSYRVLRHLAQP
On to B1, for which the specific activity is 1±0.6×10^8 U/mg.
